Tests used:
HeLa Kyoto [1] = test: solubility in G1/S (NP-40 vs SDS abundance) (log2 ratio); higher = more soluble; conditions: cell cycle stage: G1/S
HeLa Kyoto [2] = test: melting temperature (median over replicates), in situ; higher = more thermally stable
HeLa Kyoto [3] = test: solubility change mitosis vs G1/S (difference of NP-40 vs SDS log2 ratios) (log2 ratio difference); higher = more soluble in mitosis
HeLa Kyoto [4] = test: thermal stability score vs G1/S (z-score of summed log2 fold changes over temperatures); higher = more thermally stable than in G1/S
[5] = cell cycle stage: early G1 (4.5 h after nocodazole release)
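Wherever melting temperature (median over replicates), in situ is given: HeLa Kyoto cells synchronized by double thymidine or nocodazole block, proteins quantified by TMT10plex mass spectrometry, three independent biological replicates.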
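Wherever solubility change mitosis vs G1/S (difference of NP-40 vs SDS log2 ratios) is given: synchronized HeLa Kyoto cells (double thymidine block for G1/S, nocodazole release for mitosis), protein amounts in NP-40 versus SDS lysates quantified by mass spectrometry, three biological replicates.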
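Wherever solubility in G1/S (NP-40 vs SDS abundance) is given: HeLa Kyoto cells arrested at G1/S by double thymidine block, proteins quantified by TMT10plex mass spectrometry in mild NP-40 versus SDS extracts, three biological replicates.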
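Wherever thermal stability score vs G1/S (z-score of summed log2 fold changes over temperatures) is given: synchronized HeLa Kyoto cells, proteins quantified by TMT10plex mass spectrometry, three biological replicates, mitosis taken 0.5 h after nocodazole release, G1/S directly after double thymidine block.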

Row | Sequence | solubility in G1/S (log2) (HeLa Kyoto [1]) | melting temperature (HeLa Kyoto [2]; cell cycle stage: G1/S) [°C] | melting temperature (HeLa Kyoto [2]; cell cycle stage: mitosis) [°C] | solubility change mitosis (log2) (HeLa Kyoto [3]) | thermal stability score (HeLa Kyoto [4]; [5]) | thermal stability score (HeLa Kyoto [4]; cell cycle stage: mitosis)
1 | MNVVFAVKQYISKMIEDSGPGMKVLLMDKETTGIVSMVYTQSEILQKEVYLFERIDSQNREIMKHLKAICFLRPTKENVDYIIQELRRPKYTIYFIYFSNVISKSDVKSLAEADEQEVVAEVQEFYGDYIAVNPHLFSLNILGCCQGRNWDPAQLSRTTQGLTALLLSLKKCPMIRYQLSSEAAKRLAECVKQVITKEYELFEFRRTEVPPLLLILDRCDDAITPLLNQWTYQAMVHELLGINNNRIDLSRVPGISKDLREVVLSAENDEFYANNMYLNFAEIGSNIKNLMEDFQKKKPKEQQKLESIADMKAFVENYPQFKKMSGTVSKHVTVVGELSRLVSERNLLEVSEVEQELACQNDHSSALQNIKRLLQNPKVTEFDAARLVMLYALHYERHSSNSLPGLMMDLRNKGVSEKYRKLVSAVVEYGGKRVRGSDLFSPKDAVAITKQFLKGLKGVENVYTQHQPFLHETLDHLIKGRLKENLYPYLGPSTLRDRPQDIIVFVIGGATYEEALTVYNLNRTTPGVRIVLGGTTVHNTKSFLEEVLASGLHSRSKESSQVTSRSASRR [VPS45] | 0.0246 | 49.6 | 49.9 | -0.166 | 0.581 | 1.21
2 | MKKDVRILLVGEPRVGKTSLIMSLVSEEFPEEVPPRAEEITIPADVTPERVPTHIVDYSEAEQSDEQLHQEISQANVICIVYAVNNKHSIDKVTSRWIPLINERTDKDSRLPLILVGNKSDLVEYSSMETILPIMNQYTEIETCVECSAKNLKNISELFYYAQKAVLHPTGPLYCPEEKEMKPACIKALTRIFKISDQDNDGTLNDAELNFFQRICFNTPLAPQALEDVKNVVRKHISDGVADSGLTLKGFLFLHTLFIQRGRHETTWTVLRRFGYDDDLDLTPEYLFPLLKIPPDCTTELNHHAYLFLQSTFDKHDLDRDCALSPDELKDLFKVFPYIPWGPDVNNTVCTNERGWITYQGFLSQWTLTTYLDVQRCLEYLGYLGYSILTEQESQASAVTVTRDKKIDLQKKQTQRNVFRCNVIGVKNCGKSGVLQALLGRNLMRQKKIREDHKSYYAINTVYVYGQEKYLLLHDISESEFLTEAEIICDVVCLVYDVSNPKSFEYCARIFKQHFMDSRIPCLIVAAKSDLHEVKQEYSISPTDFCRKHKMPPPQAFTCNTADAPSKDIFVKLTTMAMYPHVTQADLKSSTFWLRASFGATVFAVLGFAMYKALLKQR [RHOT1] | -0.379 | 52.8 | 52.5 | -0.0628 | -0.722 | -1.26
3 | MPSPRPVLLRGARAALLLLLPPRLLARPSLLLRRSLSAASCPPISLPAAASRSSMDGAGAEEVLAPLRLAVRQQGDLVRKLKEDKAPQVDVDKAVAELKARKRVLEAKELALQPKDDIVDRAKMEDTLKRRFFYDQAFAIYGGVSGLYDFGPVGCALKNNIIQTWRQHFIQEEQILEIDCTMLTPEPVLKTSGHVDKFADFMVKDVKNGECFRADHLLKAHLQKLMSDKKCSVEKKSEMESVLAQLDNYGQQELADLFVNYNVKSPITGNDLSPPVSFNLMFKTFIGPGGNMPGYLRPETAQGIFLNFKRLLEFNQGKLPFAAAQIGNSFRNEISPRSGLIRVREFTMAEIEHFVDPSEKDHPKFQNVADLHLYLYSAKAQVSGQSARKMRLGDAVEQGVINNTVLGYFIGRIYLYLTKVGISPDKLRFRQHMENEMAHYACDCWDAESKTSYGWIEIVGCADRSCYDLSCHARATKVPLVAEKPLKEPKTVNVVQFEPSKGAIGKAYKKDAKLVMEYLAICDECYITEMEMLLNEKGEFTIETEGKTFQLTKDMINVKRFQKTLYVEEVVPNVIEPSFGLGRIMYTVFEHTFHVREGDEQRTFFSFPAVVAPFKCSVLPLSQNQEFMPFVKELSEALTRHGVSHKVDDSSGSIGRRYARTDEIGVAFGVTIDFDTVNKTPHTATLRDRDSMRQIRAEISELPSIVQDLANGNITWADVEARYPLFEGQETGKKETIEE [GARS] | 0.0194 | 59.4 | 59.5 | -0.136 | -2.91 | -2.03
4 | MKAIKKSLTEEEYLYLDFSHQTEGCIFPLHTSVTLFLLSYCDCKIFKICLVVTKEVSRDSSLLRDDLIQDVEIQIISRQELPPIVQNCCLPAVVERSDNFCRAGLAVVLRHIIQKSYEADPLKKELLELLGFKKTCLKACAEVSQWTRLCELTIPLAIENFLRESSDQPPTIPVEILQLEKKLSEPVRVHNDDKLRRQKLKQQKADGVGPPLTKGKAKSKVHTQETSEGLDSSSKSLELKVAFSKLTVQEEPATTNREPSHIRKAKASDLPPLEHVFAEGLYFTLADIVLLPCIHHFLVIISRKFSEKLVEFPLLASWYQRIQEVPGVKTAASKCGIQFLHLPKLLTTSTEQHPNLCEVPGVEEQSDPLFIGGPRPTMAKLMEKGIEVMFSPHPCPTWTLDWNVLPAAVSPKEGKMSSDRALRKQQQLNNLVYVVTNQAKPGDRIVDFCSGGGHVGIVLAHMLPSCQVTLIENKELSLIRAKKRSDELGLSNIWFIQANMEYFTGMFNIGVALHACGVATDMVIEHCIKTRASFVTCPCCYGFIQNTSKFNFPKSEQFKKTLSYKEHMILCRFADQTAVQLPPQRRLIGKQCMCLVDLDRARAAEECGYSVQVISMEPESCSPKNNMIVGVPI [GSTCD] | -0.0129 | 51.7 | 53.4 | -0.116 | -0.282 | -1.67
5 | MADLLGSILSSMEKPPSLGDQETRRKAREQAARLKKLQEQEKQQKVEFRKRMEKEVSDFIQDSGQIKKKFQPMNKIERSILHDVVEVAGLTSFSFGEDDDCRYVMIFKKEFAPSDEELDSYRRGEEWDPQKAEEKRKLKELAQRQEEEAAQQGPVVVSPASDYKDKYSHLIGKGAAKDAAHMLQANKTYGCVPVANKRDTRSIEEAMNEIRAKKRLRQSGEELPPTS [SPAG7] | 0.68 | 53.1 | 55 | -0.0144 | -1.04 | -1.5
6 | MGVEGCTKCIKYLLFVFNFVFWLAGGVILGVALWLRHDPQTTNLLYLELGDKPAPNTFYVGIYILIAVGAVMMFVGFLGCYGAIQESQCLLGTFFTCLVILFACEVAAGIWGFVNKDQIAKDVKQFYDQALQQAVVDDDANNAKAVVKTFHETLDCCGSSTLTALTTSVLKNNLCPSGSNIISNLFKEDCHQKIDDLFSGKLYLIGIAAIVVAVIMIFEMILSMVLCCGIRNSSVY [CD81] | 0.0932 | 56.1 |  | -0.0908 | 0.287 | -0.69
7 | MASGVQVADEVCRIFYDMKVRKCSTPEEIKKRKKAVIFCLSADKKCIIVEEGKEILVGDVGVTITDPFKHFVGMLPEKDCRYALYDASFETKESRKEELMFFLWAPELAPLKSKMIYASSKDAIKKKFQGIKHECQANGPEDLNRACIAEKLGGSLIVAFEGCPV [DSTN] | 0.0748 | 54.1 | 53.3 | -0.06 | -0.977 | -2.53
8 | MALLVRVLRNQTSISQWVPVCSRLIPVSPTQGQGDRALSRTSQWPQMSQSRACGGSEQIPGIDIQLNRKYHTTRKLSTTKDSPQPVEEKVGAFTKIIEAMGFTGPLKYSKWKIKIAALRMYTSCVEKTDFEEFFLRCQMPDTFNSWFLITLLHVWMCLVRMKQEGRSGKYMCRIIVHFMWEDVQQRGRVMGVNPYILKKNMILMTNHFYAAILGYDEGILSDDHGLAAALWRTFFNRKCEDPRHLELLVEYVRKQIQYLDSMNGEDLLLTGEVSWRPLVEKNPQSILKPHSPTYNDEGL [UQCC1] | -0.367 | 54.2 | 54.1 | -0.25 | 0.338 | -0.909
9 | MAAAWGSSLTAATQRAVTPWPRGRLLTASLGPQARREASSSSPEAGEGQIRLTDSCVQRLLEITEGSEFLRLQVEGGGCSGFQYKFSLDTVINPDDRVFEQGGARVVVDSDSLAFVKGAQVDFSQELIRSSFQVLNNPQAQQGCSCGSSFSIKL [ISCA2] | 0.276 | 51.6 | 53.4 | -0.123 | -1.26 | -2.06
10 | MEQLRAAARLQIVLGHLGRPSAGAVVAHPTSGTISSASFHPQQFQYTLDNNVLTLEQRKFYEENGFLVIKNLVPDADIQRFRNEFEKICRKEVKPLGLTVMRDVTISKSEYAPSEKMITKVQDFQEDKELFRYCTLPEILKYVECFTGPNIMAMHTMLINKPPDSGKKTSRHPLHQDLHYFPFRPSDLIVCAWTAMEHISRNNGCLVVLPGTHKGSLKPHDYPKWEGGVNKMFHGIQDYEENKARVHLVMEKGDTVFFHPLLIHGSGQNKTQGFRKAISCHFASADCHYIDVKGTSQENIEKEVVGIAHKFFGAENSVNLKDIWMFRARLVKGERTNL [PHYH] | 0.298 | 51.6 | 52.4 | -0.191 | 2.97 | 2.13
11 | MLADLGLIGTIGEDDEVPVEPESDSGDEEEEGPIVLGRRQKALGKNRSADFNPDFVFTEKEGTYDGSWALADVMSQLKKKRAATTLDEKIEKVRKKRKTEDKEAKSGKLEKEKEAKEGSEPKEQEDLQENDEEGSEDEASETDYSSADENILTKADTLKVKDRKKKKKKGQEAGGFFEDASQYDENLSFQDMNLSRPLLKAITAMGFKQPTPIQKACIPVGLLGKDICACAATGTGKTAAFALPVLERLIYKPRQAPVTRVLVLVPTRELGIQVHSVTRQLAQFCNITTCLAVGGLDVKSQEAALRAAPDILIATPGRLIDHLHNCPSFHLSSIEVLILDEADRMLDEYFEEQMKEIIRMCSHHRQTMLFSATMTDEVKDLASVSLKNPVRIFVNSNTDVAPFLRQEFIRIRPNREGDREAIVAALLTRTFTDHVMLFTQTKKQAHRMHILLGLMGLQVGELHGNLSQTQRLEALRRFKDEQIDILVATDVAARGLDIEGVKTVINFTMPNTIKHYVHRVGRTARAGRAGRSVSLVGEDERKMLKEIVKAAKAPVKARILPQDVILKFRDKIEKMEKDVYAVLQLEAEEKEMQQSEAQINTAKRLLEKGKEAVVQEPERSWFQTKEERKKEKIAKALQEFDLALRGKKKRKKFMKDAKKKGEMTAEERSQFEILKAQMFAERLAKRNRRAKRARAMPEEEPVRGPAKKQKQGKKSVFDEELTNTSKKALKQYRAGPSFEERKQLGLPHQRRGGNFKSKSRYKRRK [DDX27] | -2.35 | 52.4 | 52.2 | 1.15 | 1.57 | 2.15
12 | MSYDRAITVFSPDGHLFQVEYAQEAVKKGSTAVGVRGRDIVVLGVEKKSVAKLQDERTVRKICALDDNVCMAFAGLTADARIVINRARVECQSHRLTVEDPVTVEYITRYIASLKQRYTQSNGRRPFGISALIVGFDFDGTPRLYQTDPSGTYHAWKANAIGRGAKSVREFLEKNYTDEAIETDDLTIKLVIKALLEVVQSGGKNIELAVMRRDQSLKILNPEEIEKYVAEIEKEKEENEKKKQKKAS [PSMA7] | 0.332 | 59 | 62.2 | -0.0151 | -1.05 | -2.15
13 | MGNGGRSGLQQGKGNVDGVAATPTAASASCQYRCIECNQEAKELYRDYNHGVLKITICKSCQKPVDKYIEYDPVIILINAILCKAQAYRHILFNTQINIHGKLCIFCLLCEAYLRWWQLQDSNQNTAPDDLIRYAKEWDFYRMFAIAALEQTAYFIGIFTFLWVERPMTAKKKPNFILLLKALLLSSYGKLLLIPAVIWEHDYTSVCLKLIKVFVLTSNFQAIRVTLNINRKLSFLAVLSGLLLESIMVYFFQSMEWDVGSDYAIFKSQDF [ARV1] | -0.481 |  | 49.2 | -0.0477 | -0.687 | -0.97
14 | MPKFKAARGVGGQEKHAPLADQILAGNAVRAGVREKRRGRGTGEAEEEYVGPRLSRRILQQARQQQEELEAEHGTGDKPAAPRERTTRLGPRMPQDGSDDEDEEWPTLEKAATMTAAGHHAEVVVDPEDERAIEMFMNKNPPARRTLADIIMEKLTEKQTEVETVMSEVSGFPMPQLDPRVLEVYRGVREVLSKYRSGKLPKAFKIIPALSNWEQILYVTEPEAWTAAAMYQATRIFASNLKERMAQRFYNLVLLPRVRDDVAEYKRLNFHLYMALKKALFKPGAWFKGILIPLCESGTCTLREAIIVGSIITKCSIPVLHSSAAMLKIAEMEYSGANSIFLRLLLDKKYALPYRVLDALVFHFLGFRTEKRELPVLWHQCLLTLVQRYKADLATDQKEALLELLRLQPHPQLSPEIRRELQSAVPRDVEDVPITVE [BYSL] | -0.343 | 48.3 | 49 | 0.115 | 1.85 | 5.44
